Data reported in patent US20230137562A1, “TAU AGGREGATION INHIBITORS” (priority 2017, published 2023).
Values joined by “and” are separate entries in the source; they are usually repeats but may differ in a detail not shown here. Identical values can stand only once. Square brackets hold non-standard residues; d marks the D form. Ends that are not written are not given here. NMeI = CC[C@H](C)[C@H](NC)C(=O)O; hArg = N=C(N)NCCCC[C@H](N)C(=O)O; Orn = NCCC[C@H](N)C(=O)O

biological target: His-Tau40P301L Tau (UniProt P10636-8 1-441); assay: cell-based or functional assay
Sequence (P10636 other isoform, or with tags, fused parts or gaps limits assumed): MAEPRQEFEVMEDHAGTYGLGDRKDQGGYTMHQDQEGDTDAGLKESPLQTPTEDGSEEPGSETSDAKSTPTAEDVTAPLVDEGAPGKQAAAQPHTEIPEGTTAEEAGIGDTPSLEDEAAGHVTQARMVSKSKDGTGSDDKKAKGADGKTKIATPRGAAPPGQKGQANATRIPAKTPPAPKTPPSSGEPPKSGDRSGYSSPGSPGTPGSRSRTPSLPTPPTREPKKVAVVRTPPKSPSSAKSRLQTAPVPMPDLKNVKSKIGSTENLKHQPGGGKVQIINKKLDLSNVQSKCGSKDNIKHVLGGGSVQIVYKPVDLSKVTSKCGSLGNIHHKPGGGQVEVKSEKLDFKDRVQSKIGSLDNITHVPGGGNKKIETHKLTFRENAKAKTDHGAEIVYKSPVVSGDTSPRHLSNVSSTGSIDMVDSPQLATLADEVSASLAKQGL

Binder	IC50 (µM), Tau40 assay (ThT)
RIWIYWFR	0.55 µM
RIRIWIW	0.84 µM and 1.38 µM
IRIWLW	4.08 µM
RWWIRIRYW	2.54 µM
IWIRYWWR	2.44 µM
W[Orn]I[Orn]I[Orn]W [WOIOIOW]	1.17 µM
WIRIRYW	2.6 µM
LWWIRIRYW	1.59 µM and 1.8 µM
LFYLRLR	7.13 µM
WRIWIRYR	2.64 µM
RIRIRIW	2.89 µM
WRAWIRYW	2.59 µM
WRIRIWYW	0.85 µM
IWIRYWRW	2.73 µM
RIRLWYW	8.01 µM
WIRYWIRW	2.42 µM
WRLRLRW	0.23 µM
WRIWIRYL	4.09 µM
LRIWIRYW	1.71 µM
YRIRLRY	1.08 µM
WIRLYWRW	2.42 µM and 2.38 µM

Binder	IC50 (µM), Tau40 assay (ThT)
W[hArg]I[hArg]I[hArg]W [W(hR)I(hR)I(hR)W]	6.13 µM
WRIWIRAW	3.54 µM
WRIWIREW	2.76 µM
WEIRIRW	11.1 µM
WKVQVRLW	2.4 µM and 2.31 µM
RIWLWYR	2.73 µM
RIRIWKW	5.71 µM
WYRVRGRVW	6.4 µM and 6.5 µM
WRINIRYW	7.45 µM
RIRRWIW	4.55 µM
WRIFIRYW	7.67 µM
FRIWIRYW	2.12 µM
WWIRIRYWH	2.16 µM and 2.3 µM
WR[NMeI]RIRW [WR(NMe)IRIRW]	1.48 µM
HWWIRIRYW	3.11 µM
RIRIWRW	2.39 µM
IRWRIRW	2.82 µM
WRIEIRYW	12 µM
WRIWARYW	2.95 µM
FRIKLRW	2.6 µM
RIRIWYW	5.51 µM

Binder	IC50 (µM), Tau40 assay (ThT)
FRIRIRF	6.01 µM
WRIEIRW	4.84 µM
YKLHIRHW	5.72 µM
RIRAWIW	14.6 µM
IRIRWRW	2.78 µM
WRIWLYWR	1.69 µM
LRIWIRYL	2.66 µM
WRILIRYW	14.6 µM
RIRLYIW	2.12 µM
WRIRLRGW	1.74 µM and 1.91 µM
WY[Orn]L[Orn]I[Orn]W [WYOLOIOW]	5.2 µM
RIRLYWW	1.74 µM
WRVWGWVRW	1.81 µM and 1.85 µM
RIRIWAW	8.38 µM
WRIAIRW	4.01 µM
ILRYWH	2.49 µM
HWKIIWYR	2.39 µM
WRLWIHWW	2.96 µM
RIWIRYW	2.42 µM
RIWIRYWW	2.28 µM

Biological target: T1, Ac-VQIINK-NH2
T1 peptide: Ac-VQIINK-NH2
Assay: cell-based or functional assay

Binder	IC50 (µM), VQIINK Inhibition (ThT)
WRIWLWYR	2.7 µM
RIRIWIW	2.38 µM
RWWIRIRYW	2.76 µM
WRIWIRYW	1.89 µM
IWIRYWWR	2.01 µM
WIRIRYW	6.02 µM
WRIWIRYR	3.33 µM
WRIRIWYW	2.43 µM
IWIRYWRW	2.15 µM
WIRYWIRW	1.78 µM
WRLRLRW	2.22 µM
WIRLYWRW	1.86 µM
WRIWIREW	3.96 µM
WKVQVRLW	1.35 µM
RIWLWYR	4.27 µM and 5.47 µM
RIRIWLW	1.93 µM
IRLWLW	1.27 µM
IRWRIRW	9.77 µM
FRIKLRW	2.38 µM
RIWLRVW	4.09 µM
IRLIVW	3.01 µM
IRIRWRW	4.86 µM
IRIWVW	2.43 µM
LRIWIRYL	1.74 µM
RIWIRYW	4.87 µM
